Assay results published in the DeepSol protein solubility set.

test: soluble on expression in E. coli; label from the status in PepcDB or PDB records

Sequence	soluble on expression in E. coli
MTMLLDGGPQFPGLGVGSFGAPRHHEMPNREPAGMGLNPFGDSTHAAAAAAAAAAFKLSPAAAHDLSSGQSSAFTPQGSGYANALGHHHHHHHHHHHTSQVPSYGGAASAAFNSTREFLFRQRSSGLSEAASGGGQHGLFAGSASSLHAPAGIPEPPSYLLFPGLHEQGAGHPSPTGHVDNNQVHLGLRGELFGRADPYRPVASPRTDPYAAGAQFPNYSPMNMNMGVNVAAHHGPGAFFRYMRQPIKQELSCKWIDEAQLSRPKKSCDRTFSTMHELVTHVTMEHVGGPEQNNHVCYWEECPREGKSFKAKYKLVNHIRVHTGEKPFPCPFPGCGKIFARSENLKIHKRTHTGEKPFKCEFEGCDRRFANSSDRKKHMHVHTSDKPYICKVCDKSYTHPSSLRKHMKVHESQGSDSSPAASSGYESSTPPAIASANSKDTTKTPSAVQTSTSHNPGLPPNFNEWYV	soluble
RKWAEDNEVQNCMACGKGFSVTVRRHHCRQCGNIFCAECSAKNALTPSSKKPVRVCDACFNDLQG	soluble
MLFWLMASLWPMKAGVVYADQTEGAITFVSDEKIEGWATAPGIGNGQGNSIRYFMIRIQPKEQSGTAVSYRAEAVEAPADRNGEKKYTFSLDMRGKWPSAPGTMVTYQITVDAYRVLGNGKEDVYFSFPQTPYQYTRQTEASTAKLDFSLSFSQPEYAKPPNGDAQGRLDVTLVPQGAVSGIIRPPIDVVFVMDVSGSMTAMKLQSAKSALQAAVNYFKSNYNQNDRFALIPFSDGVREASVVPFGKYSNVASQLDAILNTGNSLTAGGGTNYSAALSLAKSYFTDPTRKKYIIFLTDGMPTVLNAVDTITYREVKQNFWGGYSYTGNRVTDSLSITYELYSDGRTAGIRFTDNKGYSRRFYSDGQDYVNGWRVSWDNGYSFTYSSIEGKIRADATAVAKTLGMNNITLYSIGFGDNDEVDMDYLRSLSATAGGEARQGTTQNLTALFQQFSQLATTPAITGTIRIPLSSFGGNVAVAENGQVWLDENKQNAYISFSIPYQVGQGTPAPVTIPIPVSFKAKGTYTFTAELTYRDVYGQLQPAVTKTVTVTVKDEAPPSFTGTVKLQGLTNDVTGLIKRGATDGDDNRFRATYSLSLVGYVGNATGTISNVSIVQELPDGISVVPDGKVTTYVENGKRYAKWSFTNQMFDYSQLNKLTLSAQWVMQADFAMNSVQLPPASVTFTDSRYGAKTSTLVPPAERIGMTVRLDDFPNFYYEGNGKGTITKHKFSALSDDIVGQANPNSYGLLPLPVKALEYDPNDDGVLLVTYSNGQTGIGVH	not soluble
AVSSATLEMESQRDEVAGLVRLGLSQSFGTLHIIPAIQELRELYPQLQVEVHLFDYKVDMLAEGLDLWVTNNEHLPEGYIAQRLTDCQFVVAASPDYLLKYDTPTEPNDLSLHNCLIYRSWERDYTGWAFTKGQQELNVKVSGNYSVDLAEAVRDAAIAGWGIAYLATYLLGDEFRTGKLIQLLPDWKASQSMPFYAVYPSRQHMPKKISAVINFIKQKIGNPCHWDQRLAPYISIPK	not soluble
GSKKSRLWVDRSGTFKVDAEFIGCAKGKIHLHKANGVKIAVAADKLSNEDLAYVEKITGFSLEKFKAN	soluble
MGHHHHHHSHEMLPEIGEEKVAIIAPSPSDHPQFKEILQHYVEQGKEVSPSSVRADTLDEELADLLKKAGVKTLTIAPETASDKLQEVINKGIGDEEVMRAAELASTRFEKVKLYYMVGLPGESFEDVKAILEQALRVKKLVGKVEISVNPLVPKPHTPLQWMGFGGEEELREGISHLKKKLEYLRREARRAGIGADVSGFKEFAIQTILSRGDREVAEML	soluble
AAIYHLDVSGQATIRFRPPAFLKTLVSEHAGTTRLNTLSMIHHDDRHMLSNAYSKLREAKHSLTLVYRIVTPEGKLHWIEDHMRSSFSDD	not soluble
MGSDKIHHHHHHMKISEVATPNFLLDLDQLEKNIDKIQQICTNNNKQLWPMLKTHKSTYIARLQKNAGASGFLVGTLDEGEALIKAGFEDIMLAYPYMGEVNINRIVTMASKINLICATDNIECAKAYSEAFSKSKIECKLLIIVDCGLHRFGVEPEKVVELATEISKLENIKIVGISSHPGQVYGCSSPEGVPDVCVQEDSSMEKAYKALTDNGFNIEIVASGSTPTVESEAACKTITAVRPGNYVYYDAIQIGLGCATEDMCALTVVCTVISKNSSGYYLIDCGSKCLGLDKGAHGNSSIVGYGRVCGHPELTIDSLSEEVGKIKVNGETDIKIGDRIRIIPNHSCSTANLTSNLLGFRGDTIEKVIEVDIRENSKQIIL	not soluble
MAAQKSALILLPPEDAEEIEVIVTGDVLVRGGLQVLYAGSSTEPVKCAKGARIVPDVALKDVKNKTFDIIIIPGGPGCSKLAECPVIGELLKTQVKSGGLIGAICAGPTVLLAHGIVAERVTCHYTVKDKMTEGGYKYLDDNVVISDRVITSKGPGTAFEFALKIVETLEGPEKTNSLLKPLCLAK	not soluble
MSDIPAGDYEKGKKVYKQRCLQCHVVDSTATKTGPTLHGVIGRTSGTVSGFDYSAANKNKGVVWTRETLFEYLLNPKKYIPGTKMVFAGLKKADERADLIKYIEVESAKSL	not soluble
MSPTLQDARLLWDFLGQGRCHVPCELLVVCGSYDLRVCDHACELLERGLAERLLFTGNTGHWTRHLWVEPEAELFARHARARGVSDSLIVIEPRATNFAENIAFARELFPDLRRATFVTKPNSIRRVALTLPVRWPGLEGHVDAPDYAFPDGISNLVGVLGVIDEMVGDLDRIMRYPALGFQVACPIPAQVMDAWERLVARGFDRHLVNPPRLEHHHHHH	soluble
MGSDKIHHHHHHMVETKLIIRADDLGYSDAVNIGIERSVHKGIINNVGVMVNMPTTLDGLSMIRDTKVCLGLHVVISSGRPLLNPKFIPSIVDDDGAFLSSADYRKAPNDFVNLDEVILEIEAQYQKFIELVGRKPDYFEGHAVVSDNFFKGLLVVAKCHQLNLLQVTLNSGRPSLLFKGHSLHVFMESMNKDYNPYQTLKRAVLSSCDEEYPMMICHPGYLDDYLLKHSSLTTPRTKEVEMLTDPQVRAWLYQHQVRLIKYNEI	not soluble
MIPVKFKGATFGRLVKLEFEILRLGELKIDDISEFNTKDIKLEIRATSSGIKLIGVWEGDISEVGEAIKRALDESMKLRERLLRKMRNKVERIRKTLTEMGFSEESIGYGDAIRFTKRIGEYEVAIVVSSRDDIVRVEVYGGNKKLLAPELEAFFESVDIEELEIYDVDEDGREERVVINLELPKTDEKPEKRIIEAVKVLENILMA	soluble
MKLEFNLIIAGVGGQGGLTLSRIIGNAAMIEGYRVRIGETLGMSQRYGSVLSYLRFGEEVYSPLIEEGKADLMLALEPVEALRNARFLSRKSYAIINAYPIHTATTLVGKERYPDLEEIKEAIGKICRVEMRNFQEEADKINPRTLGVLMTGFAWRKGLLPLKKESIIEGIKLTLREKLWDINFRAFERGVELASL	soluble
MGSDKIHHHHHHMSDLTVNDGSYQQLLDRIGECLALGQQRSFEQVNSVLVETYWQIGRYIVEFEQAGKERAEYGSKLLQVLSRDLKAAYGKGFSRSNLQYMRLFYLNYENCQTLSGKLSWSHYTELLAISDDLARSFYEQQCIQDRWSVRELKRQKDSALFERVALSKDRAEILALAKDGQRIESARDVVKDPYVFEFLDLPDRNYRESELENRLIAELEKFLLELGKGFAFIGQQYRITLNNTHFFVDLVFYHRILKCFVLIDLKTRAVSHQDIGQMNMYLNYFRAEENMEDDNEPIGIVLARDKDEILVEYAKGGISNQLFVSRYQLYLPDPEVLKQELKRLLSVNDG	not soluble
MRALIIVDVQNDFCEGGSLAVTGGAALARAISDYLAEAADYHHVVATKDFHIDPGDHFSGTPDYSSSWPPHCVSGTPGADFHPSLDTSAIEAVFYKGAYTGAYSGFEGVDENGTPLLNWLRQRGVDEVDVVGIATDHCVRQTAEDAVRNGLATRVLVDLTAGVSADTTVAALEEMRTASVELVCSS	soluble
MGSDKIHHHHHHMILNIDVNLAYSIEQPVDLILQIQAPSFADQHVVSETFDLGNPEHVGRIAGEAGMGDRVLLSTATDFRFSYTAQIDVNRPALALEQLKAVAPHLLPGDAVRYLMPSRYCQSDELQSFVAAEFGHLSGGARIVAMRDWINQRYQYVPGSSTAQTTAIDTFVQRQGVCRDFAHVLIALARASAIPARFVSVYAPHVTPQDFHAVAEVFLDGTWHLVDATGMADASDIARIGVGMDAAEVAFLSSFGPMTMDTQTVSVSIAGS	not soluble
MAHHHHHHMFLTFVRHTPPKTPRNVFFPWQNFSIHKSGSFLEKNRLALRVPINLTKFEIREYLRKIYNAKVIKVNTLIKVPERRRNLTDFRFNYYRNGPRYKKAIITLEHEVPDSVKMIQSCKNIGRNPYITKKNVIYGVRSDVKITPTRSQLWQMGECRYSWRLPLTNLLADYKMNLNPDLRIDENLVQLAPDMTKPFMHSGISSQTFKPSSVPEQTFPKVIFFFFQKGDVLA	soluble
KTNTEQFCASCHMQDAYPEYLHSVHYQTRTGVGASCPDCHVPHEFGAKMKRKIIAAKEVYAHYTGKVDTLEKFNAHRLEMAQNEWARMKANDSKECRNCHNVDRMTFNDQRSVAARMHQKMKTEGKTCIDCHKGIAHQLPDMSGVESGFKDEK	not soluble
MSLTLQQKELFQKSPLLLENGETLSPVLVGYETYGTLSASRDNCILLEHALTGTAHAAKHFEDDAPGWWDDYIGPGKTIDTDKYFLVCTNVFGGCSGTTGPSSINPKTGEPFRLQFPGFSIKDIIKVQRELLEQLGVTRIVSVIGGSMGGMQATEWAIDYADITDSIINIASPLAAGPDAIGYNLIMRMAILNDPDFNGGNYVGQPEGGLATARMVGMMTYRTSELFSKRFERFTVAESSPAAFSKEHFQIESYLQYQGDTFVERFDANSYLYLTKAIDLFDVTAPAKDDLPAFSKIKIPYLLIGITTDQLFRIHDLRRGYELLKEWDVPVTYHEVASEYGHDAFLVEKEVPKFEPLIRSFLSNLPVKSIEGHHHHHH	soluble
MTTYTSIANVIKERRSVRTFTDKAVEKDLLIELLNDATWAPNHKHREPWNCKLYIGEGRKKLVDAVLNSFTEEERAKRGKILSDRFLSTPAQIVVYMNEDPRQIQRDEDYAATCAFMQNFQLLAWERGLGCVWKSGGLNYNPLFIEGIGLTRGQRIVGILHIGYFDKAPEGKARTPITEKMEIIEG	soluble
MGSDKIHHHHHHLRVGEVAPTAIDLHIHTIESDGSLSVAGVIQEAAERGVRVLALTDHETTNGVPEAMELGQKHNLNIIPGVELITAFKGKEVHLLGYFSYAAMMHSDLQSRLKELRQQRTYLAFEMVKRLQKDGFTLKWAEVEKIANPEGAVSKGHIMRALHEHENGTIQWPVIAKLFQPYGIAYLPFLEHPFEEAVDLIYTCGGVPVLAHPGLLRDDRMVGELLSYLPMGLEVYYGYWEQREALIQNYKTIAQDKAILTTGGSDFHGLFGPVKLGEIEVPEQCSRELQTFLKLDF	not soluble
SMATKIDKEACRAAYNLVRDDGSAVIWVTFKYDGSTIVPGEQGAEYQHFIQQCTDDVRLFAFVRFTTGDAMSKRSKFALITWIGENVSGLQRAKTGTDKTLVKEVVQNFAKEFVISDRKELEEDFIKSELKKAGGANYDAQTE	soluble
MPQSYIVRTMRPADVEAVLRVQAAVYPASLLESAALFQNRIEIAPATCQVALDGQDLIGYLIAYPWDAGLPPALDRSLERLPGAADTWFVHDCAVLPAAQGGGVAAALLAGGRAQARRLGLRRASLVALAPAVGYWLRHGYQPLADSDALRAKLAGYGDGARYMVRADLAG	not soluble
DSYPDSQIEIRTLVGPYENTLVFRDTGPGIDDSILHKIFDDFFSFQKSGGSGLGLGYCQRVMRSFGGRIECKSVTNEFTEFYLHFPVVPNAPKVETLRTPNFYNWNQKVKTK	not soluble
